# How the values were obtained:
# Test in all cases: cell-based or functional assay
# [1] = target: HIV Env, isolate 1245045 (HIV)
# [2] = target: HIV Env, isolate 19157834_V1 (HIV)
# [3] = target: HIV Env, isolate 3514597 (HIV)
# [4] = target: HIV Env, isolate 20258279_V2 (HIV)
# [5] = target: HIV Env, isolate 20965238 (HIV)
# [6] = target: HIV Env, isolate 18814602_H8_F3 (HIV)
# [7] = target: HIV Env, isolate 19707346_E8_C6 (HIV)
# [8] = target: HIV Env, isolate 20883229_C9_H6 (HIV)
# [9] = target: HIV Env, isolate 21502011_F12_E2 (HIV)
# [10] = target: HIV Env, isolate 19314479_A2_5 (HIV)
# [11] = target: HIV Env, isolate 541-F1_A7_2 (HIV)
# [12] = target: HIV Env, isolate CAP136.1.16_E6_1 (HIV)
# [13] = target: HIV Env, isolate CAP174.1.06_F3_1B (HIV)
# [14] = target: HIV Env, isolate 722_G4_16 (HIV)
# [15] = target: HIV Env, isolate CT072_56_7 (HIV)
# [16] = target: HIV Env, isolate CT966_E1-7 (HIV)
# [17] = target: HIV Env, isolate Ko459_T68_4 (HIV)
# [18] = target: HIV Env, isolate Ko870_C2_10 (HIV)
# [19] = target: HIV Env, isolate CA392_H2_6 (HIV)
# [20] = target: HIV Env, isolate 3603_C11.13 (HIV)
# [21] = target: HIV Env, isolate 3312_D6.2 (HIV)
# [22] = target: HIV Env, isolate CAP304.2.00_F6.6 (HIV)
# [23] = target: HIV Env, isolate 20358510.01 (HIV)
# [24] = target: HIV Env, isolate Me178_G6.16 (HIV)
# [25] = target: HIV Env, isolate SO032_A2.8-1 (HIV)
# [26] = target: HIV Env, isolate Du422.1 (HIV)
# [27] = target: HIV Env, isolate ZM197M.PB7 (HIV)
# [28] = target: HIV Env, isolate CAP244.2.00.D3 (HIV)
# [29] = target: HIV Env, isolate 0984.v2.c2 (HIV)
# [30] = target: HIV Env, isolate 6631.v3.c10 (HIV)
# [31] = target: HIV Env, isolate 6980.v0.c31 (HIV)
# [32] = target: HIV Env, isolate Ce704810053_2B7 (HIV)
# [33] = target: HIV Env, isolate CeCAP200_B8a (HIV)
# [34] = target: HIV Env, isolate CeCAP188_1_D1_14(Rev-) (HIV)
# [35] = target: HIV Env, isolate CeCAP177_1A3 (HIV)
# [36] = target: HIV Env, isolate 704010042 (HIV)
# [37] = target: HIV Env, isolate 705010185 (HIV)
binder,measurement,setting,value
"ePGDM9 (antibody, V domains shown) VH: QAQLVQSGPEVRKPGTSVKVSCKNPGNTLTTYDLHWVRQVPGQGLQWMGWISHEGDKKVIVERFKAKVTIDWDRSTNTAYLQLSGLTSEDTAVYYCAKGSKHRLRDYALYDEDGALNWAVDVDYLANLEFWGQGTAVTVSS VL: DIVLTQSPLSLSVTPGESASISCKSSQSLIHGDRNNYLAWYVQKPGRSPQLLIDLASERASGVPDRFSGSGSRKDFTLKISRVETEDVGTYYCMQGRESPWTFGQGTKVDIK",IC50,[1],0.002 mg/L
same,IC80,[1],0.006 mg/L
same,IC50,[2],31.7 mg/L
same,IC80,[2],> 50 mg/L
same,IC50,[3],0.003 mg/L
same,IC80,[3],0.011 mg/L
same,IC50,[4],> 50 mg/L
same,IC80,[4],> 50 mg/L
same,IC50,[5],> 50 mg/L
same,IC80,[5],> 50 mg/L
same,IC50,[6],< 0.0006 mg/L
same,IC80,[6],0.002 mg/L
same,IC50,[7],0.005 mg/L
same,IC80,[7],0.014 mg/L
same,IC50,[8],> 50 mg/L
same,IC80,[8],> 50 mg/L
same,IC50,[9],> 50 mg/L
same,IC80,[9],> 50 mg/L
same,IC50,[10],< 0.0006 mg/L
same,IC80,[10],0.001 mg/L
same,IC50,[11],0.005 mg/L
same,IC80,[11],0.02 mg/L
same,IC50,[12],> 50 mg/L
same,IC80,[12],> 50 mg/L
same,IC50,[13],12.6 mg/L
same,IC80,[13],> 50 mg/L
same,IC50,[14],0.198 mg/L
same,IC80,[14],0.585 mg/L
same,IC50,[15],0.002 mg/L
same,IC80,[15],1.23 mg/L
same,IC50,[16],< 0.0006 mg/L
same,IC80,[16],0.003 mg/L
same,IC50,[17],0.003 mg/L
same,IC80,[17],0.126 mg/L
same,IC50,[18],0.001 mg/L
same,IC80,[18],0.021 mg/L
same,IC50,[19],0.032 mg/L
same,IC80,[19],0.129 mg/L
same,IC50,[20],0.654 mg/L
same,IC80,[20],2.17 mg/L
same,IC50,[21],0.004 mg/L
same,IC80,[21],0.011 mg/L
same,IC50,[22],0.002 mg/L
same,IC80,[22],0.013 mg/L
same,IC50,[23],0.004 mg/L
same,IC80,[23],0.017 mg/L
same,IC50,[24],0.006 mg/L
same,IC80,[24],0.031 mg/L
same,IC50,[25],> 50 mg/L
same,IC80,[25],> 50 mg/L
same,IC50,[26],> 50 mg/L
same,IC80,[26],> 50 mg/L
same,IC50,[27],0.017 mg/L
same,IC80,[27],0.05 mg/L
same,IC50,[28],2.87 mg/L
same,IC80,[28],19.9 mg/L
same,IC50,[29],2.81 mg/L
same,IC80,[29],> 50 mg/L
same,IC50,[30],> 50 mg/L
same,IC80,[30],> 50 mg/L
same,IC50,[31],< 0.0006 mg/L
same,IC80,[31],0.006 mg/L
same,IC50,[32],0.003 mg/L
same,IC80,[32],0.007 mg/L
same,IC50,[33],0.003 mg/L
same,IC80,[33],0.022 mg/L
same,IC50,[34],> 50 mg/L
same,IC80,[34],> 50 mg/L
same,IC50,[35],0.153 mg/L
same,IC80,[35],1.06 mg/L
same,IC50,[36],< 0.0006 mg/L
same,IC80,[36],< 0.0006 mg/L
same,IC50,[37],0.706 mg/L
same,IC80,[37],2.15 mg/L
